Measured values from US6368809.

Target: HA-epitope tagged E2F-4 (human) (UniProt Q16254)
Assay: cell-based or functional assay

UniProt Q16254, sequence (Q16254 whole entry): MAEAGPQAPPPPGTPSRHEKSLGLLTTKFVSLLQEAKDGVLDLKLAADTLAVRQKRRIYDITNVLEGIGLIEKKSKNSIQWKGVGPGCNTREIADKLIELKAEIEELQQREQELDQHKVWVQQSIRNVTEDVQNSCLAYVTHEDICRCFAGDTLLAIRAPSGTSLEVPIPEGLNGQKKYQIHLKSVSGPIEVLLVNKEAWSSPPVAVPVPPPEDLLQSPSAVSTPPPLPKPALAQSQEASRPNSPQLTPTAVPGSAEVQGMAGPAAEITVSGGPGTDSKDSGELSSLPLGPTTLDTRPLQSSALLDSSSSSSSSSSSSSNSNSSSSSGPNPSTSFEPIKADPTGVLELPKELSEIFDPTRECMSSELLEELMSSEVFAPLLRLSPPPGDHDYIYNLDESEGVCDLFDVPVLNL

For “HA-tagged p107 (from UniProt P28749 1-1068)”, the E2F-4 half life (pulse chase, immunoprecipitation with 12CA5, phosphorimager; free E2-F4 approximately 2-3 hours) was 8 h.
